Laboratory results: patent publication US20060148017A1 (published 2006)

Assays:
Zip4S = tested on: T1, Zip4S
T1 sequence: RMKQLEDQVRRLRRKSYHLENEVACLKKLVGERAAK

Zip 1 = tested on: T2, Zip 1
T2 sequence: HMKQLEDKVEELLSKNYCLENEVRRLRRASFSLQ

Zip 2 = tested on: T3, Zip 2
T3 sequence: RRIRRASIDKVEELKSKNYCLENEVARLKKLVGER

Zip4T = tested on: T4, Zip4T
T4 sequence: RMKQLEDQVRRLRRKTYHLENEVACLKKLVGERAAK

[1] = molecular target: the molecule itself; experiment: circular dichroism thermal denaturation (self-association of unmodified Zip4S is implied)
Protocol: The circular dichroism (measured in units of ellipticity) of proteins at 222 nm provides a measure of the amount of α-helix present in the structure, with a large, negative ellipticity indicting a high level of helicity. […] In all experiments described herein, peptide concentration was determined by tyrosine absorbance at 280 nm in 6M GuHCl.

Ca2+/Calmodulin-dependent Protein Kinase (CaMKII)
timecourse of phosphorylation (32P incorporation) (Zip4S): CaMKII was unable to phosphorylate Zip4S

protein kinase A (PKA)
phosphorylation by reverse-phase HPLC and radioactive assay (Zip 1): The peptides were both shown to be good substrates for PKA by reverse-phase HPLC and radioactive assay
phosphorylation by reverse-phase HPLC and radioactive assay (Zip 2): The peptides were both shown to be good substrates for PKA by reverse-phase HPLC and radioactive assay
timecourse of phosphorylation (32P incorporation) (Zip4T): Zip4T is also phosphorylated, but at a slower rate, with full phosphorylation achieved in 30 minutes in this assay

RMKQLEDQVRRLRRKSYHLENEVACLKKLVGERAAK (GCN4 numbering)) [Zip4S]
binding result [1]: binds
